Test: yeast display, Sf9 membrane polyspecificity reagent, FACS + sequencing; frameworks hold sequencing errors
Summary of the method: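 Polyreactivity labels are assigned by the sorting gate from which each nanobody was recovered. The gates were low and high (top ~1%), set on anti-HA fluorescence for expression and streptavidin fluorescence for reagent binding. Before sorting, galactose-induced (36–48 hours) yeast display cells were stained for 1 hour at 4 °C with 10% biotinylated, detergent-solubilized Sf9 membrane reagent.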

| Sequence | polyreactivity (PSR sort gate) |
| --- | --- |
| QVQLVESGGGLVQAGGSLRLSCAASGRTLKWYAMGWYRQAPGKERELVAAISWSGGSTYYADSVKGRFTISRDNAKNTVYLQMNSLKPEDTAVYYCAVAVTSYSSKKLYYWGQGTQVTVSS | low polyreactivity |
| QVQLVESGGGLVQAGGSLRLSCAASGIIFWYNAMGWYRQAPGKERELVAAITYSGGSTYYADSVKGRFTISRDNAKNTVYLQMNSLKPEDTAVYYCAADGYSRYASGGYEYWGQGTQVTVSS | low polyreactivity |
| QVQLVESGGGLVQAGGSLRLSCAASGSILQQYTMGWYRPAPGKERELVAAISSSGSSTYYADSVKGRFTISRDNAKNTVYLQMNSLKPEDTAVYYCNADYHDKFYWGQGTQVTVSS | low polyreactivity |
| QVQLVESGGGLVQAGGSLRLSCAASGSIFAINAMGWYRQAPGKERELVARISWSGGRTYYADSVKVRFTISRDNAKNTVYLQMNSLKPEDTAVYYCAKRYYKSLNRDEFDSWGQGTQGTVSS | high polyreactivity |
| QVQLVESGGGLVQAGGSLRLSCAASGYTFSNNAMGWYRQAPGKERELVAAISRSTGSTYYADSVKGRFTISRDNAKNTVYLQMNSLKPEDTAVYYCAAEYYVDKSSWYDYWGQGTQVTVSS | high polyreactivity |
| QVQLVESGGGLVQAGGSLRLSCAASGFIFYDYDMGWYRQSPGKERELVAAISSGGSTNYADSVKGRFTISRDNAKNTVYLQMNSLIPEDTAVYYCATDVGVERRQVDRYIYDYWGQGTQVTVSS | low polyreactivity |
| QVQLVESGGGLVQAGGSLRLSCAASGSIFDDNAMGWYRQAPGKERELVAGISRGGSTNYADSVKGRFTISRDNANNTVYLQMNSLKPEDTAVYYCNKRYKPSWTTYDYWGQGTQVTVSS | low polyreactivity |
| QVQLVESGGGLVQAGGSLRLSCAASGRIFNRYAMGLYSQAPGKERELVAAISYTGGRTYYADSVKGRFTISRDNAKNTVYLQRNCLTPEDTAVYYCNVYVIHWDFTTSSVRRFDYWGQGTQVNVSS | high polyreactivity |
| QVQLVESGGGLVQAGGSLRISCAASGLTFDYYAMGSYRQAPGKERELVAAITSGSITYYADSVKGRFTISRDNAKNTVYLQMNSLKPEDTAVYYCAAKRTSFTARYGYWGLGTQVTVSS | high polyreactivity |
| QVQLVESGGGLVQAGGSLRLSCAASGRTFYPYAMGWYRQAPGKERELVAAISSSGGSTYYADSVKGRFTISRDNAKNTVYLQMNSLKPEDTAVYYCAAAVYLQYLDDPTYGYWGQGTQVTVSS | high polyreactivity |
| QVQLVESGGGLVQAGGSLRVSCAASGIFPAYDMGWYRQAPGKDRELVASISADSGSTHYADSVKGRFTISRDNAKNTVYFQMNSLKPEDTAVYYCAADLGYRTGDYYWGQGTQVTVSS | low polyreactivity |
| QVQLVESGGGLVQAGGSLRLSCAASGRTFGKNAMGWYRQAPGKEREFVAAITSRGGSTYYADSVKGRFTISRDNAKNTVYLQMNSLKPEDTAVYYCNREYKRPSQRTEHYYWGQGTQVTVSS | low polyreactivity |
| QVQLVESGGGLVQAGGSLRLSCAASGRIFTYYAMGWYRQAPGKERELVAAITSGGGSTSYADSVKGRFTISRDNAKNTVYLQMNSLKPEDTAVYYCATRRPFYGHNTYYWYNYWGQGTQVTVSS | high polyreactivity |
| QVQLVESGGALVQAGGSLRLSCAASGIIFTPYAMGWYRQAPGKERQLLAAISWSGGRTYYADSVKGRFTISRDNAKNTVYLQMNSLKPEATAVYYCNARRYWWPHYYEYDYWGQGTHVTVSS | high polyreactivity |
| QVQLVESGGGLVQAGGSLRLSCAASGYTFSRYAMGWYRQAPGKERELVADISRSGGSTDYADSVKGRFTISRDNAKNTVYLQMNSLKPEETAVYYCAKGSWWGYYSYGFDYWGQGTQVTVSS | high polyreactivity |
| QVQLVESGGGLVQAGGSLRISCAASGRTFPRYAMGWYRQAPGKERELVAGISWSGGRTYYADSVKGRFTISRDNAKNTVYLQMNSLKPEDTAVYYCAVVSKNLSYRTTFYYWGQGTQVTVSS | high polyreactivity |

| Sequence | polyreactivity (PSR sort gate) |
| --- | --- |
| QVQLVESGGGLVQAGGSLRLSCAASGRIFGVYAMGWYRQAPGKERELVADISWSGSGTYADSVKGRFTISRDNAKNTVYLQMMSLKPEDTAVYYCNVDPAQIHAGYVGYDYWGQGTQVTVSS | low polyreactivity |
| QVQLVESGGGLVQEGGSLRLSCAASGRIFWSYAMGWYRQAPGKERELVAAITWRTGRTYYADSVKGRFTISRDNAKNTVYLQMNSLKPEDTAVYYCAAEGYLGGQSYNGLNYDSWGQGTQVTVSS | low polyreactivity |
| QVQLVESGGGLVQAGGSLRLSCAASGIIFTFYGMGWYRQAPGKERELVAAIRTGGSTTYADSVKGRFTISRDNAKNTVYLQMNSLKPEDTAVYYCAAERYWVFHGTISYNYDYWGQGTQVTVSS | low polyreactivity |
| QVQLVESGGGLVQAGGSLRLSCAASGITFGVYAMGWYRQAPGKERELVAAISWSVGSTYYADSVKGRFTISRDNAKNTVYLQMNSLKPEDTAVYYCAAYYGVGFDYWGQGTQVTVSS | high polyreactivity |
| QVQLVESGGGLVQAGGSLRLSCAASGSIFEYNVMGWYRQAPGKERELVAAINSGGSTYYADSVKGRFTISRDNAKNTVYLQMNSLKPEDTAVYYCAARQRPNRYGYYYWGQGTQVTVSS | high polyreactivity |
| QVHLVESGGAIVQAGGSLRLSCAASGYIFDRNAMAWYRQAPGKERELVAAITKRGGITYYADSVKGRFTISRDNAKNTVYLQMNSLKAEDTAVYYCNALARSSRYDYWGKGTQVTVSS | low polyreactivity |
| QVQLVESGGCLVQAGGSLRLSCAASGIIFYYYAMGWSRQAPGKEREFVAGIRWSSGSTYYADSVKGRFTISRDNAKNTVYLQMNSLKPEDTAVYYCAAAYLSWYGGYYYWGQGSQVTVSS | low polyreactivity |
| QVQLVESGGGLVQAGGSLRLSCAASGFTFHYYAMGWYRPAPGKERELVAAISRGGGNTYYADSVKGRFTISRDNAKNTVYLQMNSLKPEDTAVYYCAADSKYRFSHGLDYWGQGTQVTVSS | high polyreactivity |
| QVQLVESGGGLVQAGGSLRLSCAASGFTLLPNAMGWYRQAPGKERELVAAITASGGRTYYADSVKGRFTISRDNAKNTVYLQMNSLKPEDSAVYYCNAGVYYYYHYTRMDYWGQGTQVTVSS | low polyreactivity |
| QVQQQESGGGLVQAGGSLRLSCAASGTIFQLTVMRRYRQAPGKERELVASIDYGGNTNYADSVKGRFTISRDNAKNTVYLQMNSLKPEDTAVYYCAASSDSWTTHPYWGQGTQVTVSS | low polyreactivity |
| QVQLVESGGGLVQAGGSLRLSCAASGRTFAYNAMGWYRQAPGKERELVADITSGGSTYYADSVKGRFTISRDNAKNTVYLQMNSLKPEDTAVYYCAAYPQFWYWDYNYWGQGTQVTVSS | high polyreactivity |
| QVQLVESGGGLVQAGGSLRLSCAASGYTFQAYAMGWYRQAPGKERELVAAISFSSGSTYYADSVKGRFTISRDNAKNTVYLQMNSLKPVDTAVYYCATDYPYYGYDYWGHGTQVTVSS | low polyreactivity |
| QVQLVESGGGLVQAGGSLRLSCAASGSIFGWNAMGWYRQAPGKERELVAAISSGGSTYYADSVKGRFTISRDNAKNTVSLQMNSLKPEDTAVYYCNAYFQYYDYWGQGTQVTVSS | low polyreactivity |
| QVQLVESGGGLVQAGGSLRLSCAASGLTFLDYAMGWYRPAPGKERELVAAITSGGSTNYADSVKGRFTISRDNAKNTVYLQMNSLKPEDTAVYYCATDLEVSAYDYWGQGTQVTVSS | low polyreactivity |
| QVKLVESGGGLVQAGGSLRLSCAASGFTIANYAMGWYRQAPGKERELVAAITTSGSTYYADSVKGRFTISRDNAKNTVYLQMNSLKPEDTAVYYCAVSIWVWFASGFDYWGQGTQVTVSS | high polyreactivity |
| QVQLVESGGGLVQAGGSLRLSCAASGSICWIYAMGWYRQAPGKERELVAAINVGGGSTYYADSVKGRFTISRDNAKNTVYLQMNSLKPEDTAVYYCAKGYQSPYKSQGYEYDYWGQGTQVTVSS | low polyreactivity |
